Reference: patent US8530245B2

Target: Alexa Fluor-AChR conjugate (acetylcholine receptor purified from Torpedo californica electric organs, labelled with Alexa Fluor 488 or 647) (Torpedo californica) (UniProt P02710)
Assay: flow cytometry, CD19+ B cells stained with Alexa-AChR

Percent of B cells that were AChR+ (lymph node, mean) [%]	Substance
10.4	B cells (CD19+ or B220+) from CFA+AChR-immunized C57BL/6 mice with EAMG (spleen, lymph node, peripheral blood) (cells without a defined receptor)
5.6	B cells from unimmunized naive C57BL/6 mice (cells without a defined receptor)
